Measurements reported in patent US20220177583A1 (University of California, published 2022).
Positions count from the first letter of the chain named.

T1: human CLDN6, endogenously expressed on cancer cell lines (human, UniProt P56747 1-220)
T1 construct: also called Endogenous CLDN6+; CLDN6 on ARK2, OVCA429, UMUC4 cells
T1 sequence: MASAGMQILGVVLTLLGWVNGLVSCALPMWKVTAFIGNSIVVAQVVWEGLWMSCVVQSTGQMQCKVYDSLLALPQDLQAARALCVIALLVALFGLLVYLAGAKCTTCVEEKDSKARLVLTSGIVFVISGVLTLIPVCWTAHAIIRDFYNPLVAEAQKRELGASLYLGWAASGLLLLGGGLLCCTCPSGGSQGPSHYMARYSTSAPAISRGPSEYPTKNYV

T2: mouse CLDN6 fused to GFP, expressed on engineered HEK293T cells (mouse, UniProt Q9Z262 1-219)
T2 construct: whole, on cells; also called HEK293T-CLDN6-mGFP Artificial CLDN6+ (mouse); murine CLDN6; not shown: GFP tag
T2 sequence (looked up): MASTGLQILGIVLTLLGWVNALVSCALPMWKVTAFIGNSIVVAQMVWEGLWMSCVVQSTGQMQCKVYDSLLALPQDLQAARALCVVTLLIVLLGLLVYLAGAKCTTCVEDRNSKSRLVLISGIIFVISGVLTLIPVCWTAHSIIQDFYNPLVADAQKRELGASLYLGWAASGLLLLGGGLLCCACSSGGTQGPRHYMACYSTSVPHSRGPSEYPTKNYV

B1: AB9 (antibody, V domains shown)
VH: EVQLQQSGPELVKPGASVKMSCKASGYRFTDYNMHWVKQSHGKSLEWIGYINPNNGGTNYNQNFKGKATLTVNKSSSTAYMELRSLTSEDSAAYYCARDYLYFFDCWGQGTTLTVSS
VL: DIQMTQSPASQSASLGESVTITCLASQTIGTWLAWYQQKPGKSPQLLIYAAASLADGVPSRFSGSGSGTRFSFKISSLQAEDFVSYYCQQLYSIPRTFGGGTKLEIK
notes: Full-length IgG (ExpiCHO)
B2: AB13 (antibody, V domains shown)
VH: QVQLQQSGAELVRPGTSVKVSCKASGYAFSNYLIEWVKQRPGQGLEWIGVINPGSGGTNYNEKFKGKATMTADKSSSTAYMHLSNLTSEDSVVYFCARSYFGRSYPYTMDYWGQGTSVTVSS
VL: EIVLTQSPTTMAASPGEKITITCSASSSISSNYLHWYQQKPGFSPKLLIYRTSNLASGVPARFSGSGSGTSYSLTIGTMEAEDVATYYCQQGSSIPLTFGAGTKLELK
notes: Full-length IgG (ExpiCHO)
B3: AB14 (antibody, V domains shown)
VH: QVQLQQSGPELVRPGVSVKISCKGSGYTFTDYAMHWVKQSHAKSLEWIGVISTYSGNTNYNQKFQDKATMTVDKSSSTAYMALARLTSDDSAIYYCARRGDYSLYAMDYWGQGTSVTVSS
VL: DIVLTQSPASLAVSLGQRATISCKASQSVDYDGDNYVNWYQQKVGQPPKLLISAASNLESGIPARFSGSGSGTDFTLNIHPVEEEDAATYYCQQSNEDPFTFGSGTKLEIK
notes: Full-length IgG (ExpiCHO)
B4: AB4-4 (antibody, V domains shown)
VH: QVQLVQSGAEVKKPGASVKMSCKASGYTFTSYTMHWIRQAPGQGLEWIGYINPSSTYTHYAQKFQGRATLTADTSTSTAYMELSSLRSEDTAVYYCSRGELGGFAYWGQGTLVTVSS
VL: DVVMTQSPLSLPVTLGQPASISCRSSQSLVHSDGNTYLNWYQQRPGQSPRLLIYKVSNRFSGVPDRFSGSGSGTDFTLKISRVEAEDVGVYYCSQSTHVPYTFGQGTKLEIK
notes: Humanized; also called humanized AB 4-4
B5: AB4-5 (antibody, V domains shown)
VH: B4 VH with L45Q
VL: B4 VL
notes: Humanized; also called humanized AB 4-5
B6: AB4-3 (antibody, V domains shown)
VH: B4 VH with M20V, I37V, I48M, A68V, L70M, A79V
VL: B4 VL
notes: Humanized; also called humanized AB 4-3
B7: AB9-4 (antibody, V domains shown)
VH: QVQLVQSGAEVKKPGASVKMSCKASGYRFTDYNMHWVRQAPGQGLEWIGYINPNNGGTNYAQKFQGRATLTVDTSTSTAYMELSSLRSEDTAVYYCARDYLYFFDCWGQGTLLTVSS
VL: DIQMTQSPSSLSASVGDRVTITCRASQTIGTWLAWYQQKPGKAPKLLIYAAASLADGVPSRFSGSGSGTDFTFTISSLQPEDFVTYYCQQLYSIPRTFGQGTKLEIK
notes: Humanized; also called humanized AB 9-4
B8: AB3-7 (antibody, V domains shown)
VH: EVQLLESGGGLVQPGGSMRLSCAASGFTFSNYWMNWVRQAPGKGLEWVAQIRLKSDNYATHYADSVKGRFTISRDDSKNTVYLQMNSLRAEDTGVYYCNDGPPSGSWGQGTLLTVSS
VL: DIQMTQSPSSLSASVGDRVTITCRISENIYSYLAWYQQKPGKAPKLLVYNAKILVEGVPSRFSGSGSGTDFTLTISSLQPEDFGTYYCQHHYTVPWTFGQGTKLEIK
notes: Humanized; also called humanized AB3-7; AB23
B9: AB3-3 (antibody, V domains shown)
VH: B8 VH with S106C
VL: B8 VL
notes: Humanized; also called humanized AB 3-3
B10: AB3-4 (antibody, V domains shown)
VH: B8 VH with S106Y
VL: B8 VL with V48I, G84A
notes: Humanized; full-length IgG; also called humanized AB 3-4
B11: AB3-chim (antibody, V domains shown)
VH: EVKLEESGGGLVQPGGSMKLSCVASGFTFSNYWMNWVRQSPEKGLEWVAQIRLKSDNYATHYAESVKGRFTISRDDSKRSVYLQMNNLRAEDTGTYYCNDGPPSGCWGQGTTLIVSS
VL: DIQMTQSPASLSASVGETVTITCRISENIYSYLAWYQQKQGKSPQLLVYNAKILVEGVPSRFSGSGSGTQFSLKINSLQPEDFGNYYCQHHYTVPWTFGGGTKLEIK
notes: Parental antibody prior to humanization ('chim'); also called pre-humanized form of AB3
B12: AB11-2 (antibody, V domains shown)
VH: EVQLVESGGGLVQPGGSLRLSCAASGFTFSSFGMHWVRQAPGKGLEWVAYISSDSRTIYYADSVKGRFTISRDNAKNSLYLQMNSLRAEDTAVYYCARDYGRTYEAYWGQGTLVTVSS
VL: DIVMTQSPDSLAVSLGERATINCRASKSVSTSGYSYIHWYQQKPGQPPKLLIYLASNLESGVPDRFSGSGSGTDFTLTISSLQAEDVAVYYCQHSRELPLTFGQGTKLEIK
notes: Humanized; also called humanized AB 11-2
B13: AB11-3 (antibody, V domains shown)
VH: B12 VH
VL: B12 VL with M4L, L82V, I110L
notes: Humanized; also called humanized AB 11-3
B14: AB11-chim (antibody, V domains shown)
VH: DVQLVESGGGLVQPRGSRKLSCAASGFTFSSFGMHWVRQAPEKGLEWVAYISSDSRTIYYADTVKGRFTISRDNPTNTLFLQMTSLRSEDTAMYYCARDYGRTYEAYWGQGTLVTVSA
VL: DIVLTQSPASLAVSLGQRATISCRASKSVSTSGYSYIHWYQQKPGQPPKLLIYLASNLESGVPARFSGSGSGTDFTLNIHPVEEEDAATYYCQHSRELPLTFGAGTKLELK
notes: Parental antibody prior to humanization ('chim'); also called pre-humanized form of AB11
B15: AB3-7 conjugated to MC-VC-PAB-MMAE (conventional) (antibody, V domains shown)
VH: B8 VH
VL: B8 VL
modifications: MC-VC-PAB-MMAE conjugated to the antibody, heterogeneous (conventional); sites not stated
notes: Antibody-drug conjugate of humanized AB3-7 (WuXi Biologics); also called CLDN6 ADC; ADC-23 (conventional)
B16: AB3-7 conjugated to MC-VC-PAB-DXD (antibody, V domains shown)
VH: B8 VH
VL: B8 VL
modifications: MC-VC-PAB-DXD conjugated to the antibody; sites not stated
notes: Antibody-drug conjugate of humanized AB3-7; also called CLDN6 ADC
B17: AB3-7 conjugated to MC-GGFG-MMAE (D4 technology) (antibody, V domains shown)
VH: B8 VH
VL: B8 VL
modifications: MC-GGFG-MMAE conjugated to the antibody (D4); sites not stated
notes: as for B16
B18: AB3-7 conjugated to MC-VC-PAB-MMAE (D4 technology) (antibody, V domains shown)
VH: B8 VH
VL: B8 VL
modifications: MC-VC-PAB-MMAE conjugated to the antibody, substantially 4 drugs per antibody (D4); sites not stated
notes: Antibody-drug conjugate of humanized AB3-7; also called CLDN6 ADC; ADC-23 (D4 technology)
B19: AB3-7 conjugated to CL2A-SN38 (D4 technology) (antibody, V domains shown)
VH: B8 VH
VL: B8 VL
modifications: CL2A-SN38 conjugated to the antibody (D4); sites not stated
notes: as for B16
B20: AB3-7 conjugated to MC-GGFG-DXD (antibody, V domains shown)
VH: B8 VH
VL: B8 VL
modifications: MC-GGFG-DXD conjugated to the antibody; sites not stated
notes: as for B16
B21: AB3-7 conjugated to CL2A-SN38 (conventional) (antibody, V domains shown)
VH: B8 VH
VL: B8 VL
modifications: CL2A-SN38 conjugated to the antibody, heterogeneous (conventional); sites not stated
notes: as for B16

These binders were tested against T1, human CLDN6, endogenously expressed on … (assay: FACS dose curve, labelled mAb, ARK2 cells).
B1 showed an EC50 of 1.14 µM.
For B2, the EC50 was 1.15 µM.
B3 showed an EC50 of 1.3 µM.

Each binder was assayed against T1, human CLDN6, endogenously expressed on … (assay: FACS, ARK2 cells, 1.5 ug Ab).
With B4 the FACS signal was 1400.
For B5, the FACS signal was 1200.
Work on B6 yielded an FACS signal of 1520.
Work on B7 yielded an FACS signal of 1550.
B8 was tested, and the FACS signal was 90400.
For B9, the FACS signal was 54900.
B10 showed an FACS signal of 1460.
B11 gave an FACS signal of 29100.
With B12 the FACS signal was 1940.
B13 gave an FACS signal of 1540.
In the case of B14, the FACS signal is reported as 1260.

These binders were tested against T1, human CLDN6, endogenously expressed on … (assay: FACS, ARK2 cells, 0.3 ug Ab).
B4 gave an FACS signal of 1050.
Work on B5 yielded an FACS signal of 967.
B6 gave an FACS signal of 1190.
Binder B7 has an FACS signal of 1120.
B8 was tested, and the FACS signal was 36000.
Work on B9 yielded an FACS signal of 1160.
For B10, the FACS signal was 1320.
Binder B11 has an FACS signal of 17100.
For B12, the FACS signal was 1400.
Work on B13 yielded an FACS signal of 1320.
In the case of B14, the FACS signal is reported as 1320.

Each binder was assayed against T1, human CLDN6, endogenously expressed on … (assay: FACS, OVCA429 cells, 1.5 ug Ab).
With B4 the FACS signal was 1200.
B5 was tested, and the FACS signal was 1350.
For B6, the FACS signal was 1160.
B7 gave an FACS signal of 1110.
B9 gave an FACS signal of 88700.
In the case of B10, the FACS signal is reported as 2960.
For B11, the FACS signal was 138000.
B12 was tested, and the FACS signal was 2690.
B13 gave an FACS signal of 2200.
B14 gave an FACS signal of 2440.

Each binder was assayed against T1, human CLDN6, endogenously expressed on … (assay: flow cytometry on UMUC4 cells (Positive Cell Line), anti-human IgG Fc secondary antibody).
In the case of B15, the “flow cytometry signal at 0.1µg Ab/Sample” value is reported as 8910 and the “flow cytometry signal at 1µg Ab/Sample” value is reported as 28800.
For B16, the “flow cytometry signal at 0.1µg Ab/Sample” value was 10800 and the “flow cytometry signal at 1µg Ab/Sample” value was 32600.
B17 was tested, and the “flow cytometry signal at 0.1µg Ab/Sample” value was 8790 and the “flow cytometry signal at 1µg Ab/Sample” value was 31600.
In the case of B8, the “flow cytometry signal at 0.1µg Ab/Sample” value is reported as 8820 and the “flow cytometry signal at 1µg Ab/Sample” value is reported as 27300.
With B18 the “flow cytometry signal at 0.1µg Ab/Sample” value was 9450 and the “flow cytometry signal at 1µg Ab/Sample” value was 25900.
For B19, the “flow cytometry signal at 0.1µg Ab/Sample” value was 9140 and the “flow cytometry signal at 1µg Ab/Sample” value was 34600.
With B20 the “flow cytometry signal at 0.1µg Ab/Sample” value was 10500 and the “flow cytometry signal at 1µg Ab/Sample” value was 32800.
In the case of B21, the “flow cytometry signal at 0.1µg Ab/Sample” value is reported as 9990 and the “flow cytometry signal at 1µg Ab/Sample” value is reported as 33800.

These binders were tested against T2, mouse CLDN6 fused to GFP, expressed on … (assay: FACS, 293T clone with mouse CLDN6).
Work on B4 yielded an FACS signal of 741.
In the case of B5, the FACS signal is reported as 2000.
B6 was tested, and the FACS signal was 671.
Binder B7 has an FACS signal of 1710.
B8 gave an FACS signal of 56100.
In the case of B9, the FACS signal is reported as 23000.
With B10 the FACS signal was 1520.
Binder B11 has an FACS signal of 67900.
With B12 the FACS signal was 7160.
B13 showed an FACS signal of 5520.
B14 was tested, and the FACS signal was 5490.

These binders were tested against T1, human CLDN6, endogenously expressed on … (assay: FACS dose curve, labelled mAb, OVCA429 cells).
B1 showed an EC50 of 1.17 µM.
For B2, the EC50 was 2.29 µM.
Binder B3 has an EC50 of 1.66 µM.
